Measured values from PMC2935088.

Target: T1, DesT (selenomethionine) (Pseudomonas aeruginosa, UniProt Q9HUS3 1-209)
T1 sequence: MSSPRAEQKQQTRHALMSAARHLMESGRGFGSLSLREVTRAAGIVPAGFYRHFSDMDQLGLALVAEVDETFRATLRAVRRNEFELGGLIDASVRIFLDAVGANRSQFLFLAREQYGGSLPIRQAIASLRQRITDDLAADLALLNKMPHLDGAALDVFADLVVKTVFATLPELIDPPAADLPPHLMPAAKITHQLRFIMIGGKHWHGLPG
Experiment: X-ray crystallography

B1: desCB promoter 30mer crystallization duplex (dsDNA)
DNA 1: TTACATCAGTGAACGCTTGTTGACTCGATTG
DNA 2: CAATCGAGTCAACAAGCGTTCACTGATGTA
  binding result: binds
